Reference: the supplement of paper PMC9112550, “Optimization of the antimicrobial peptide Bac7 by deep mutational scanning” (BMC Biology, 2022)

tested on: Escherichia coli TOP10; experiment: shrunken log2 fold change of peptide-encoding DNA abundance (4.5 h post-induction vs induction); higher = less antimicrobial activity (less host growth inhibition); conditions: time post-induction: 4.5 h; library: site-saturation at positions 5, 18, 19, 20
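Also: peptides expressed intracellularly from a pBAD plasmid library in pooled LB shake-flask culture, induced with 0.3% L-arabinose, DNA abundance read by NGS, three biological replicates, DESeq2 with apeglm shrinkage.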

Point of comparison: RRIRDRPPRLPRPRPRPVCQPRP, “shrunken log2 fold change” value 0.0526. Against it:
- RRIRYRPPRLPRPRPRPEYWPRP — lower, -0.692
- RRIRLRPPRLPRPRPRPACDPRP — within 0.2 log units, 0.15
- RRIRLRPPRLPRPRPRPLKCPRP — within 0.2 log units, -0.0489
- RRIRIRPPRLPRPRPRPCHWPRP — within 0.2 log units, -0.0328
- RRIRYRPPRLPRPRPRPGNGPRP — lower, -0.234
- RRIRKRPPRLPRPRPRPLMGPRP — higher, 0.818
- RRIRARPPRLPRPRPRPCSTPRP — within 0.2 log units, -0.0691
- RRIRFRPPRLPRPRPRPANAPRP — within 0.2 log units, -0.0885
- RRIRHRPPRLPRPRPRPCLMPRP — within 0.2 log units, -0.0298
- RRIRVRPPRLPRPRPRPSFLPRP — lower, -0.666
- RRIRERPPRLPRPRPRPQVGPRP — within 0.2 log units, -0.0112
- RRIRRRPPRLPRPRPRPAVGPRP — higher, 0.344
- RRIRTRPPRLPRPRPRPCAFPRP — within 0.2 log units, -0.0344
- RRIRRRPPRLPRPRPRPWPYPRP — within 0.2 log units, 0.131
- RRIRMRPPRLPRPRPRPTCCPRP — within 0.2 log units, 0.213
- RRIRSRPPRLPRPRPRPSTEPRP — within 0.2 log units, -0.0608
- RRIRDRPPRLPRPRPRPQKNPRP — lower, -0.431
- RRIRKRPPRLPRPRPRPKWGPRP — higher, 0.594
- RRIRKRPPRLPRPRPRPPWPPRP — higher, 0.827
- RRIRHRPPRLPRPRPRPEHIPRP — within 0.2 log units, -0.142
- RRIRDRPPRLPRPRPRPIHFPRP — within 0.2 log units, -0.0728
- RRIRGRPPRLPRPRPRPDQMPRP — higher, 0.633
- RRIRLRPPRLPRPRPRPINLPRP — lower, -0.573
- RRIRPRPPRLPRPRPRPIDLPRP — within 0.2 log units, -0.0858
- RRIRRRPPRLPRPRPRPYPWPRP — within 0.2 log units, -0.101
- RRIRQRPPRLPRPRPRPKGGPRP — within 0.2 log units, 0.0347
- RRIRMRPPRLPRPRPRPDIHPRP — higher, 0.335
- RRIRWRPPRLPRPRPRPNDKPRP — lower, -0.291
- RRIRFRPPRLPRPRPRPGRQPRP — within 0.2 log units, 0.179
- RRIRKRPPRLPRPRPRPDSAPRP — within 0.2 log units, 0.115
- RRIRTRPPRLPRPRPRPAHVPRP — within 0.2 log units, 0.0505
- RRIRFRPPRLPRPRPRPSHKPRP — within 0.2 log units, -0.121
- RRIRNRPPRLPRPRPRPDTPPRP — within 0.2 log units, 0.0123
- RRIRQRPPRLPRPRPRPIQEPRP — within 0.2 log units, -0.142
- RRIRVRPPRLPRPRPRPHTWPRP — lower, -0.351
- RRIRPRPPRLPRPRPRPIVQPRP — within 0.2 log units, -0.135
- RRIRKRPPRLPRPRPRPILGPRP — within 0.2 log units, 0.00783
- RRIRPRPPRLPRPRPRPKGNPRP — within 0.2 log units, -0.097
- RRIRYRPPRLPRPRPRPHYYPRP — within 0.2 log units, 0.0204
- RRIRARPPRLPRPRPRPWIVPRP — within 0.2 log units, -0.0598
- RRIRYRPPRLPRPRPRPGYNPRP — within 0.2 log units, -0.0489
- RRIRFRPPRLPRPRPRPGMIPRP — lower, -0.224
- RRIRSRPPRLPRPRPRPRFSPRP — higher, 0.44
- RRIRGRPPRLPRPRPRPGKTPRP — within 0.2 log units, 0.0643
- RRIRCRPPRLPRPRPRPMMCPRP — within 0.2 log units, 0.0512
- RRIRKRPPRLPRPRPRPRFVPRP — within 0.2 log units, 0.0638
- RRIRARPPRLPRPRPRPHVKPRP — lower, -0.289
- RRIRRRPPRLPRPRPRPYLNPRP — lower, -1.13
- RRIRLRPPRLPRPRPRPKSTPRP — lower, -0.222
- RRIRTRPPRLPRPRPRPNNCPRP — within 0.2 log units, -0.0675
- RRIRHRPPRLPRPRPRPVKGPRP — within 0.2 log units, -0.079
- RRIRDRPPRLPRPRPRPPDKPRP — within 0.2 log units, 0.189
- RRIRWRPPRLPRPRPRPRFYPRP — within 0.2 log units, -0.00432
- RRIRRRPPRLPRPRPRPVRLPRP — higher, 1.08
- RRIRGRPPRLPRPRPRPMGAPRP — higher, 0.821
- RRIRHRPPRLPRPRPRPPEHPRP — within 0.2 log units, -0.116
- RRIRQRPPRLPRPRPRPHGKPRP — lower, -0.352
- RRIRQRPPRLPRPRPRPQCQPRP — within 0.2 log units, 0.05
- RRIRLRPPRLPRPRPRPHDTPRP — lower, -0.18
